Five molecules from patent publication US20080039411A1, “Use Of Resistin Antisense Oligonucleotides And/Or Sirna Molecules In The Treatment Of Rheumatoid Arthritis” (priority 2004, published 2008) can be followed below.

Test [1] deals with human PBMC (resistin mRNA). Put plainly: Stimulation of human PBMC with pro-inflammatory cytokines: resistin mRNA. In kind it is cell-based. To be noted: human PBMC (n=5), physiological concentrations (TNF-alpha 1-5 ng/ml). As to the method: (§1) Peripheral blood mononuclear cells (PBMC) were prepared from heparinized blood of healthy individuals by separation on a Lymphoprep density gradient, washed, and resuspended in complete medium (Iscoves medium containing 1% L-glutamine, 5×10^−5 M ®-mercapto ethanol, […] of gentamycin sulphate, and 10% heat inactivated fetal calf serum). Culturing of PBMC was carried out in 24-well plates in a humidified atmosphere of 5% CO2 at 37° C. Culturing of monocytic cell line THP-1 (American Type Culture Collection, Manassas, Va.) was performed in 10-ml culture flasks (Nunclon) in […] medium supplemented with 10% FCS, 1% sodium pyruvate, gentamycin, and 2.5% Hepes in a humidified atmosphere of 5% CO2 at 37° C. For the experiments, 4-days old cells were harvested, washed, and adjusted to 1×10^6 cells/ml.
(§2) Total RNA from harvested cells was extracted by an RNAeasy kit (Qiagen, Inc.) and concentration was assessed spectrophotometrically at 260 nm. The gene expression was measured with TaqMan real time PCR (Applied Biosystems, Foster City, Calif.) as previously described (N&S, 2001). In short, total RNA extracts were treated with deoxyribonuclease I, and reverse transcribed with random nonamer primers and superscript II RnaseH-reverse transcriptase (life Technologies). After first strand cDNA synthesis, relative transcript cDNA levels were measured using oligonucleotide PCR primers and fluorogenic Taqman probes for test genes and 18S rRNA. […] For generation of the standard curve, serially diluted cDNA prepared from PBMC were used. Each TaqMan set span one or two exon joints in order to increase further both specificity of only RNA detection and efficiency of PCR reaction. Sequences were manually designed with using the PrimerExpress program (Applied Biosystems) to check them for secondary structure, melting temperature, GC content, primer to primer and/or to probe dimmers. The GenBank database was useful to avoid all known sites of oligonucleotide polymorphism and unspecific annealing of any nucleotide.

Another test concerns THP-1 cells. The test is described as follows: Stimulation of monocytic cell line THP-1. It is filed as cell-based, human. As to the method: as §1
The test system of another test is synovial cells. Put plainly: In vitro stimulation of synovial cells from patients with acute synovitis. In kind it is cell-based, human. To be noted: synovial cells from patients with acute synovitis (n=4). As to the method:
as §2

The test system of the next test is human PBMC. The test is described as follows: Resistin stimulation of PBMC: cytokine gene expression and cytokine release. In kind it is cell-based. As to the method:
as §1
Freshly isolated PBMC were re-suspended to 2×10^6/ml and stimulated with recombinant human resistin (endotoxin concentration less than 0.1 ng/μg, PeproTech) at final concentration 10-1000 ng/ml. LPS (10 ng/ml) was used as a positive control in all the experiments. […] Cell stimulation period differed depending on the read-out system used. […]
Total RNA from harvested cells was extracted by an RNAeasy kit (Qiagen, Inc.) and concentration was assessed spectrophotometrically at 260 nm. The gene expression was measured with TaqMan real time PCR (Applied Biosystems, Foster City, Calif.) as previously described (N&S, 2001). […] After first strand cDNA synthesis, relative transcript cDNA levels were measured using oligonucleotide PCR primers and fluorogenic Taqman probes for test genes and 18S rRNA. […]
The level of IL-6 in synovial fluid and supernatants was determined by a bioassay. The effect of test samples on proliferation of the IL-6 dependent cell line B13.29 [21] was assessed following 72 h of culturing. The results were analyzed by incorporation of [3H]-thymidine (Radiochemical Centre, Amersham, Bucks, U.K.) during the last 4 h of incubation at 37° C. […]
Levels of TNF-α and IL-1B were assessed using an ELISA kit (R&D Systems) following manufacture's recommendations. […]

A further test concerns NF-kappaB. The test is described as follows: Electrophoretic mobility shift assay of nuclear extracts of resistin-stimulated PBMC. To be noted: PBMC stimulated with resistin. It is filed as cell-based, human. As to the method: Human PBMC (10^7) were stimulated with recombinant resistin (10-500 ng/ml) as described above. After 2 h, the stimulation was stopped with ice-cold PBS, cells were washed and resuspended in 2 ml hypotonic buffer (pH 7.9, containing 10 mM HEPES, 0.1 mM EDTA, 0.1 mM EGTA, 10 mM KCl, 0.75 mM spermidin, 0.15 mM spermin, […] and proteinase inhibitors, Complete MiniTab, Boehringer) and homogenised. Following centrifugation at 14000 g at 4° C. for 10 min, the supernatant was removed and the pellet was resuspended in the ice-cold extraction buffer (pH 7.9, 20 mM HEPES, 0.42 M NaCl, […], 1 mM EGTA, 25% glycerol, […] and proteinase inhibitors). Extraction proceeded at 4° C. under continuous rotation for 1 h. The supernatants containing nuclear extracts were collected after centrifugation 14000 g for 1 h at 4° C. Protein concentration in the extracts was determined using Bradford reagent (Sigma). Nuclear extracts were aliquoted and stored at −70° C. until use.
EMSA was performed as described elsewhere (Bergquist et al., 2000) with minor modifications. The sequences for oligonucleotides used for the assay were as follows:
Oligonucleotides were annealed at 56° C. The double stranded product was purified by elution from the electrophoretic gel. […]
For orientation: A gel shift assay detects complexes by their altered migration in electrophoresis.

Test [2] has as its system knee joint of healthy mice. Put plainly: Intra-articular injection of recombinant mouse resistin into knee joint, histology. In kind it is in vivo. As to the method: Female NMRI mice, 6-8 weeks old, weighing 25-30 g, were purchased from ALAB (Stockholm, Sweden). The mice were bred and housed in the animal facility of the Department of Rheumatology, University of Göteborg, under standard conditions of temperature and light, and fed laboratory chow and water ad libidum. Mouse recombinant resistin (PeproTech EC, London, U.K.) was injected intra-particularly into the right knee joint (0.1-100 ng/knee) in the total volume of 20 μl. Control mice obtained equivalent volume of mouse albumin (Sigma, St. Louise, Mo.) in PBS buffer. Three days after the joint injection, the mice were sacrificed by cervical dislocation and the right knee was removed for histological examination.
Histological examination of joints was done after routine fixation, decalcification, and paraffin embedding of the tissue. Tissue sections of the knee joints were cut and stained with hematoxylin and eosin. All the slides were coded and evaluated blindly by two investigators with respect to synovial hypertrophy, the inflammatory cell infiltration of synovia, pannus formation, and cartilage and subchondral bone destruction. Synovial hypertrophy was defined as synovial membrane thickness of more than two cell layers. Intensity of in-flammatory cell infiltration of synovia was graded arbitrarily from 0 to 3.

As for “IL-1b: pro-inflammatory cytokine used to stimulate PBMC”, the “induction of resistin mRNA” value in test [1] is given as “less efficient”.
As to “IL-6: pro-inflammatory cytokine used to stimulate PBMC”, the “induction of resistin mRNA” value in test [1] is on record as “less efficient”.
TNF-alpha: in test [1], the “induction of resistin mRNA” value was “could induce the expression of resistin”. Further, the “expression of resistin gene” value in the test with THP-1 cells (THP-1 cells) is reported as “neither stimulation with TNF-a nor with LPS gave rise to the expression of resistin gene”.

B1: recombinant human resistin: recombinant human resistin (endotoxin concentration less than 0.1 ng/μg, PeproTech) (protein, UniProt Q9HD89 19-108, looked up)
Resistin: KTLCSMEEAINERIQEVAGSLIFRAISSIGLECQSVTSRGDLATCPRGFAVTGCTCGSACGSWDVRAETTCHCQCAGMDWTGARCCRVQP
As for B1, in the test on THP-1 cells (THP-1 stimulated with resistin), the cytokine production result is given as “cytokine production in the pattern similar to PBMC”. The “expression of TNF-alpha and IL-6 genes” value with synovial cells is “increased expression of TNF-alpha and IL-6 genes”. Also, the “IL-6 activity and levels of TNF-alpha and IL-1b in supernatants” value with human PBMC (PBMC, 48 hours of stimulation) was “dose dependent increase”. The “cytokine gene expression (TNF-alpha, IL-6, IL-1b) in cell lysates” value with human PBMC (PBMC, resistin 10-1000 ng/ml) is given as “induction of genes for pro-inflammatory cytokines”. Moreover, the “resistin gene expression in PBMC” value with human PBMC (resistin stimulation, detectable following 3 h up to 24 h) is recorded as “self-stimulation of resistin gene”. In the test on NF-kappaB, the “NF-kappaB translocation (EMSA)” value is on record as “induced translocation of NF-kappaB from cytoplasma to nucleus”.

B2: recombinant mouse resistin: Mouse recombinant resistin (PeproTech EC, London, U.K.) (protein, UniProt Q99P87 21-114, looked up)
Resistin: SSMPLCPIDEAIDKKIKQDFNSLFPNAIKNIGLNCWTVSSRGKLASCPEGTAVLSCSCGSACGSWDIREEKVCHCQCARIDWTAARCCKLQVAS
For the molecule B2, the “histological analysis of injected joints” value in test [2] (0.1-100 ng/knee intra-articularly, three days after injection) was “signs of inflammation in the joint”. In test [2] (single intra-articular injection, 1 ng/knee (50 ng/ml)), the “leukocyte infiltration and hyperplasia of synovia” value is “sufficient to induce leukocyte infiltration and hyperplasia of synovia”.
